Measured values: the supplement of paper PMC6757056
± gives the standard deviation of the averaged measurements.

B1: library; a variant is named by its letters at N, in order (parent)
chain: GCUGUCACCGAGAAACUGUGAAGUAUAUCUUAAACCUGGGCACUUAAAAGAUAUAUGGAGUUAGUAGUGCAACCUGCUCGGUCUGAUGAGUCCNNNNNNGGACGAAACAGC

What was measured:
cyclic di-GMP [1] = variants of: B1; assay: normalized RNA/DNA level without ligand (relative to sTRSVctl = 100) (log10 (% of sTRSVctl)); HEK293T; ligand: cyclic di-GMP (c-di-GMP-II aptamer); higher = less ribozyme self-cleavage, higher mRNA level; conditions: reporter: mCherry (pCS4076), ligand present: no
How it was run: (§1)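 For each 6-well well, 4 µg of library plasmid encoding mCherry-linked ribozyme switches, or eGFP-linked ones in some ligand experiments, was transfected into HEK293T. Any ligand was added 1 h before transfection, and RNA was extracted with EDTA 72 h after it, then reverse-transcribed, amplified, barcoded and sequenced. RNA level was obtained by dividing RNA reads by DNA reads, normalizing to a spiked-in non-cleaving sequence or to the top sequences, then scaling and log-transforming. The top set was 25 sequences, scaling was ×100 with log10, and ≥100 DNA reads were required.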

cyclic di-GMP [2] = variants of: B1; assay: normalized RNA/DNA level with ligand (relative to sTRSVctl = 100) (log10 (% of sTRSVctl)); HEK293T; ligand: cyclic di-GMP (c-di-GMP-II aptamer); ligand concentration (+) RNA-Seq: 1 mM; higher = less ribozyme self-cleavage, higher mRNA level; conditions: reporter: mCherry (pCS4076), ligand present: yes
How it was run: as §1

Variant | normalized RNA/DNA level without ligand (log10) (cyclic di-GMP [1]) | normalized RNA/DNA level with ligand (log10) (cyclic di-GMP [2])
CACCCA | 1.59 ± 0.097 | 1.75 ± 0.077
GGUGAU | 1.67 ± 0.041 | 1.76 ± 0.057
CCAACU | 1.56 ± 0.0039 | 1.75 ± 0.15
UCGUUC | 1.739 ± 0.0071 | 1.88 ± 0.11
AAUGCC | 1.73 ± 0.034 | 1.83 ± 0.11
UGAGCA | 1.84 ± 0.073 | 1.91 ± 0.11
UCCGCA | 1.72 ± 0.021 | 1.86 ± 0.14
AUCCGA | 1.56 ± 0.017 | 1.73 ± 0.15
ACUUCG | 1.66 ± 0.067 | 1.79 ± 0.069
CCGAGU | 1.63 ± 0.025 | 1.8 ± 0.13
CAGAGC | 1.67 ± 0.036 | 1.83 ± 0.09
AAGUCG | 1.62 ± 0.031 | 1.79 ± 0.089
UAGGCA | 1.68 ± 0.072 | 1.84 ± 0.13
UUCAGA | 1.7 ± 0.084 | 1.81 ± 0.069
GAAUAU | 1.59 ± 0.039 | 1.79 ± 0.077
UUGCCC | 1.83 ± 0.081 | 1.84 ± 0.2
AAUCCC | 1.77 ± 0.032 | 1.86 ± 0.087
UUUUAU | 1.7 ± 0.025 | 1.87 ± 0.095
GGACGC | 1.656 ± 0.0062 | 1.82 ± 0.1
CCUAGU | 1.72 ± 0.02 | 1.85 ± 0.11
UGCCGA | 1.626 ± 0.012 | 1.79 ± 0.12
UACGAC | 1.67 ± 0.017 | 1.82 ± 0.11
UGUUAA | 1.693 ± 0.01 | 1.85 ± 0.09

Variant | normalized RNA/DNA level without ligand (log10) (cyclic di-GMP [1]) | normalized RNA/DNA level with ligand (log10) (cyclic di-GMP [2])
CUGGUU | 1.67 ± 0.025 | 1.83 ± 0.08
CGGCCU | 1.74 ± 0.018 | 1.88 ± 0.11
CAGAUU | 1.48 ± 0.11 | 1.65 ± 0.1
CACGGU | 1.685 ± 0.015 | 1.84 ± 0.064
UUUAAA | 1.654 ± 0.0051 | 1.79 ± 0.081
CUUUGG | 1.781 ± 0.0073 | 1.87 ± 0.089
GUUAAA | 1.51 ± 0.079 | 1.7 ± 0.12
GCCGCC | 1.72 ± 0.033 | 1.82 ± 0.075
AUUCUU | 1.72 ± 0.052 | 1.88 ± 0.11
UUAACU | 1.77 ± 0.02 | 1.87 ± 0.071
UUAUGU | 1.7 ± 0.024 | 1.84 ± 0.11
ACCACU | 1.61 ± 0.062 | 1.82 ± 0.087
UGCGCG | 1.821 ± 0.0063 | 1.92 ± 0.085
GUCGCA | 1.77 ± 0.021 | 1.86 ± 0.09
GACCAA | 1.52 ± 0.083 | 1.71 ± 0.065
AAGGCG | 1.728 ± 0.012 | 1.83 ± 0.091
UGAUCG | 1.77 ± 0.053 | 1.84 ± 0.15
AUAUUC | 1.707 ± 0.0056 | 1.84 ± 0.12
AGCCGC | 1.75 ± 0.033 | 1.89 ± 0.13
UUCUAU | 1.721 ± 0.0074 | 1.83 ± 0.11
CUAGUG | 1.529 ± 0.0021 | 1.69 ± 0.12
GUCCAU | 1.66 ± 0.054 | 1.83 ± 0.14
UCCCAA | 1.6799 ± 0.00075 | 1.84 ± 0.077

Variant | normalized RNA/DNA level without ligand (log10) (cyclic di-GMP [1]) | normalized RNA/DNA level with ligand (log10) (cyclic di-GMP [2])
UAUGUC | 1.73 ± 0.034 | 1.85 ± 0.099
CCUAAU | 1.53 ± 0.042 | 1.73 ± 0.14
UCACAA | 1.547 ± 0.011 | 1.72 ± 0.087
UAGAUA | 1.614 ± 0.012 | 1.78 ± 0.11
AAAAAC | 1.61 ± 0.031 | 1.74 ± 0.13
GGCGAA | 1.558 ± 0.0061 | 1.77 ± 0.2
AUUAGA | 1.52 ± 0.12 | 1.69 ± 0.058
UAGCAU | 1.653 ± 0.0034 | 1.8 ± 0.11
UGCGUA | 1.6 ± 0.029 | 1.81 ± 0.1
ACCGGU | 1.531 ± 0.003 | 1.76 ± 0.08
UCAUAC | 1.674 ± 0.011 | 1.81 ± 0.11
UCCUUA | 1.65 ± 0.025 | 1.83 ± 0.15
ACGUCA | 1.61 ± 0.033 | 1.76 ± 0.13
GGUGUA | 1.6 ± 0.14 | 1.76 ± 0.14
CCAUAU | 1.55 ± 0.041 | 1.73 ± 0.071
UUGGUA | 1.45 ± 0.084 | 1.73 ± 0.11
GGGUAG | 1.85 ± 0.057 | 1.89 ± 0.059
GCGACA | 1.52 ± 0.091 | 1.73 ± 0.084
CUAUAC | 1.696 ± 0.016 | 1.83 ± 0.1
CUGAGC | 1.76 ± 0.033 | 1.87 ± 0.12
AGAACG | 1.463 ± 0.001 | 1.67 ± 0.094
AACCGU | 1.54 ± 0.056 | 1.74 ± 0.091
AUAAGG | 1.54 ± 0.057 | 1.71 ± 0.12

Variant | normalized RNA/DNA level without ligand (log10) (cyclic di-GMP [1]) | normalized RNA/DNA level with ligand (log10) (cyclic di-GMP [2])
AGAUGG | 1.55 ± 0.089 | 1.73 ± 0.082
GUCGUU | 1.61 ± 0.017 | 1.8 ± 0.14
AUCUCU | 1.669 ± 0.0069 | 1.86 ± 0.042
CCGUGG | 1.53 ± 0.061 | 1.69 ± 0.14
GGCAUA | 1.58 ± 0.11 | 1.72 ± 0.14
AAUAUU | 1.667 ± 0.015 | 1.83 ± 0.083
GGCAUU | 1.66 ± 0.076 | 1.82 ± 0.021
GAUUUU | 1.656 ± 0.01 | 1.81 ± 0.14
UUUACC | 1.75 ± 0.028 | 1.87 ± 0.058
UAACAA | 1.7 ± 0.034 | 1.83 ± 0.16
AGUCGU | 1.6615 ± 0.0012 | 1.79 ± 0.08
AAAGCG | 1.689 ± 0.0061 | 1.78 ± 0.14
AGGGAC | 1.55 ± 0.12 | 1.7 ± 0.16
UGGUUG | 1.686 ± 0.011 | 1.83 ± 0.11
AUGGGA | 1.4 ± 0.12 | 1.56 ± 0.074
CUGUCC | 1.786 ± 0.0046 | 1.92 ± 0.12
ACUAGA | 1.41 ± 0.066 | 1.64 ± 0.12
CAUACG | 1.81 ± 0.051 | 1.91 ± 0.052
AAAGGC | 1.6 ± 0.044 | 1.77 ± 0.14
UGCACC | 1.74 ± 0.036 | 1.84 ± 0.14
GCCUUU | 1.69 ± 0.051 | 1.88 ± 0.14
GAAUCG | 1.67 ± 0.041 | 1.8 ± 0.096
ACACUC | 1.637 ± 0.0033 | 1.77 ± 0.11

Variant | normalized RNA/DNA level without ligand (log10) (cyclic di-GMP [1]) | normalized RNA/DNA level with ligand (log10) (cyclic di-GMP [2])
GUGGCA | 1.81 ± 0.027 | 1.91 ± 0.097
GAGCAA | 1.76 ± 0.023 | 1.83 ± 0.12
CUGGAC | 1.63 ± 0.018 | 1.77 ± 0.096
CCGAUA | 1.31 ± 0.13 | 1.54 ± 0.075
GAAGAG | 1.5 ± 0.14 | 1.71 ± 0.094
CCUGGU | 1.672 ± 0.0096 | 1.83 ± 0.13
GUGCUA | 1.646 ± 0.0015 | 1.8 ± 0.091
CCGCAG | 1.54 ± 0.054 | 1.67 ± 0.12
GGUGAC | 1.75 ± 0.0083 | 1.86 ± 0.14
AACGAC | 1.6 ± 0.04 | 1.79 ± 0.12
GACCAC | 1.69 ± 0.056 | 1.85 ± 0.12
AUUUUU | 1.76 ± 0.03 | 1.89 ± 0.075
UAAGGC | 1.66 ± 0.058 | 1.81 ± 0.056
ACUUCA | 1.648 ± 0.014 | 1.83 ± 0.082
GGCACA | 1.69 ± 0.024 | 1.8 ± 0.12
CCGGGA | 1.51 ± 0.068 | 1.69 ± 0.089
GCCUCA | 1.737 ± 0.0028 | 1.87 ± 0.068
UUAAUC | 1.77 ± 0.075 | 1.83 ± 0.14
AUACCU | 1.7 ± 0.054 | 1.85 ± 0.046
ACAUUC | 1.6 ± 0.084 | 1.81 ± 0.058
AAGCAG | 1.79 ± 0.081 | 1.9 ± 0.11
GAGUCU | 1.8 ± 0.07 | 1.85 ± 0.076
UUAGCU | 1.775 ± 0.0051 | 1.89 ± 0.062
